# Columns and labels:
# [1] = system: E2C(Sp1) six-finger, no effector domain (synthetic); assay: cell_activity; conditions: approximately; HeLa luciferase, no effector domain
# [2] = system: E2C-ER//ER-VP64 heterodimer (synthetic); assay: cell_activity; conditions: tamoxifen-dependent; maximum at optimised partner ratio
# [3] = system: E2C(Sp1)-ERD six-finger repressor (synthetic); assay: cell_activity; conditions: approximately; HeLa luciferase
# [4] = system: SID-E2C(Sp1) six-finger repressor (synthetic); assay: cell_activity; conditions: approximately; HeLa luciferase
# [5] = system: E2C-ER//ER-KRAB heterodimer (synthetic); assay: cell_activity; conditions: tamoxifen-dependent; partner ratio 1/10
# [6] = target: pGGA (Zif268-C7 finger 2 variant) finger 2 helix -2 to 6 = SQRAHLER in Zif268-C7 (synthetic) (UniProt P08046); assay: EMSA; conditions: [7-9,26-28]
# [7] = target: pmGTT (Zif268-C7 finger 2 variant) finger 2 helix -2 to 6 = STSGSLVR in Zif268-C7 (synthetic) (UniProt P08046); assay: EMSA; conditions: [none]
# [8] = target: pGTA (Zif268-C7 finger 2 variant) finger 2 helix -2 to 6 = SQSSSLVR in Zif268-C7 (synthetic) (UniProt P08046); assay: EMSA; conditions: [7-9,26-28]
# [9] = target: pmGGG (Zif268-C7 finger 2 variant) finger 2 helix -2 to 6 = SRSDKLVR in Zif268-C7 (synthetic) (UniProt P08046); assay: EMSA; conditions: [7-9,26-28]
# [10] = target: pGTG (Zif268-C7 finger 2 variant) finger 2 helix -2 to 6 = SRKDSLVR in Zif268-C7 (synthetic) (UniProt P08046); assay: EMSA; conditions: [7-9,26-28]
# [11] = target: pmGTG (Zif268-C7 finger 2 variant) finger 2 helix -2 to 6 = SRSDELVR in Zif268-C7 (synthetic) (UniProt P08046); assay: EMSA; conditions: [7-9,26-28]
# E2C-HS2(Sp1) (synthetic) = assay: EMSA
# E2C-HS2(F2) (synthetic) = assay: EMSA; conditions: ELISA binding good (Table 11)
# E2C-HS2(Zif) (synthetic) = assay: EMSA
# [12] = target: C7 (Zif268-C7) (synthetic) (UniProt P08046); assay: EMSA; conditions: [none]
# [13] = target: pGCC (Zif268-C7 finger 2 variant) finger 2 helix -2 to 6 = SDCRDLAR in Zif268-C7 (synthetic) (UniProt P08046); assay: EMSA; conditions: [none]
# [14] = target: pmGAC (Zif268-C7 finger 2 variant) finger 2 helix -2 to 6 = SDPGNLVR in Zif268-C7 (synthetic) (UniProt P08046); assay: EMSA; conditions: [none]
# [15] = target: pGTC (Zif268-C7 finger 2 variant) finger 2 helix -2 to 6 = SDPGALVR in Zif268-C7 (synthetic) (UniProt P08046); assay: EMSA; conditions: [none]
# [16] = target: pmGGC (Zif268-C7 finger 2 variant) finger 2 helix -2 to 6 = SDPGHLVR in Zif268-C7 (synthetic) (UniProt P08046); assay: EMSA; conditions: [7-9,26-28]
# [17] = target: pmGGT (Zif268-C7 finger 2 variant) finger 2 helix -2 to 6 = STSGHLVR in Zif268-C7 (synthetic) (UniProt P08046); assay: EMSA; conditions: [7-9,26-28]
# [18] = system: E2C(Zif) six-finger (synthetic); assay: EMSA
# [19] = system: E2C(F2) six-finger (synthetic); assay: EMSA
# [20] = system: E2C(Sp1) six-finger (synthetic); assay: EMSA
# [21] = target: pGCA (Zif268-C7 finger 2 variant) finger 2 helix -2 to 6 = SQSGDLRR in Zif268-C7 (synthetic) (UniProt P08046); assay: EMSA; conditions: [none]
# [22] = target: pmGCT (Zif268-C7 finger 2 variant) finger 2 helix -2 to 6 = STSGELVR in Zif268-C7 (synthetic) (UniProt P08046); assay: EMSA; conditions: [none]
# [23] = target: pmGAA (Zif268-C7 finger 2 variant) finger 2 helix -2 to 6 = SQSSNLVR in Zif268-C7 (synthetic) (UniProt P08046); assay: EMSA; conditions: [none]
# E2C-HS1(F2) (synthetic) = assay: EMSA; conditions: ELISA binding good (Table 11)
# E2C-HS1(Zif) (synthetic) = assay: EMSA
# E2C-HS1(Sp1) (synthetic) = assay: EMSA
# 2C7LBDAS (synthetic) = assay: cell_activity; conditions: about; estrogen, 6x2C7 SV40 luc, Cos cells
# [24] = system: C7LBDAS G400V G400V (human ER numbering) (synthetic); assay: cell_activity; conditions: ligand-dependent, 6x2C7pGL3Luc
# C7LBDAS (synthetic) = assay: cell_activity; conditions: ligand-dependent, 6x2C7pGL3Luc
# E2E-PBD-VP64 (synthetic) = assay: cell_activity; conditions: +RU486; basal 18259, control 17209
# [25] = target: pmGAG (Zif268-C7 finger 2 variant) finger 2 helix -2 to 6 = SRSDNLVR in Zif268-C7 (synthetic) (UniProt P08046); assay: EMSA; conditions: [7-9,26-28]
# [26] = target: pGGG (Zif268-C7 finger 2 variant) finger 2 helix -2 to 6 = SRSDHLTR in Zif268-C7 (synthetic) (UniProt P08046); assay: EMSA; conditions: [7-9,26-28]
# [27] = system: C5(F2) three-finger protein (synthetic); assay: EMSA
# [28] = target: pGAT (Zif268-C7 finger 2 variant) finger 2 helix -2 to 6 = STSGNLVR in Zif268-C7 (synthetic) (UniProt P08046); assay: EMSA; conditions: [none]
sequence,measurement,setting,value
GGGGCCGGAGCCGCAGTG (double strand) [E2C site in erbB-2 promoter reporter],activity,[1],30 % repression
same,activity (fold activation),[2],5.3
same,activity,[3],50 % repression
same,activity,[4],80 % repression
same,activity (fold repression),[5],2.9
GGACGCTCCCGCGGGTTTTCCCGCGGGAGCGTCC [F2 site GGA],Kd,[6],3 nM
GGACGCAACCGCGGGTTTTCCCGCGGTTGCGTCC [F2 site GTT],Kd,[7],5 nM
GGACGCCACCGCGGGTTTTCCCGCGGTGGCGTCC [F2 site GTG],Kd,[8],> 1000 nM
same,Kd,[9],> 1400 nM
same,Kd,[10],3 nM
same,Kd,[11],15 nM
GCCGCAGTGG (double strand) [e2c-hs2],Kd,E2C-HS2(Sp1) (synthetic),25 nM
same,Kd,E2C-HS2(F2) (synthetic),70 nM
same,Kd,E2C-HS2(Zif) (synthetic),75 nM
GGACGCCCACGCGGGTTTTCCCGCGTGGGCGTCC [F2 site TGG],Kd,[12],0.5 nM
GGACGCGGCCGCGGGTTTTCCCGCGGCCGCGTCC [F2 site GCC],Kd,[13],80 nM
same,Kd,[14],90 nM
same,Kd,[15],> 4400 nM
GGACGCGCCCGCGGGTTTTCCCGCGGGCGCGTCC [F2 site GGC],Kd,[16],40 nM
same,Kd,[17],> 2400 nM
GGGGCCGGAGCCGCAGTGG (double strand) [e2c-g],Kd,[18],1.6 nM
same,Kd,[19],25 nM
same,Kd,[20],0.5 nM
GGACGCAGCCGCGGGTTTTCCCGCGGCTGCGTCC [F2 site GCT],Kd,[21],10 nM
same,Kd,[22],65 nM
GGACGCTTCCGCGGGTTTTCCCGCGGAAGCGTCC [F2 site GAA],Kd,[23],0.5 nM
GGGGCCGGAG (double strand) [e2c-hs1],Kd,E2C-HS1(F2) (synthetic),45 nM
same,Kd,E2C-HS1(Zif) (synthetic),70 nM
same,Kd,E2C-HS1(Sp1) (synthetic),35 nM
GCGTGGGCG (double strand) [C7 site of 6x2C7 luc reporter],activity (fold induction),2C7LBDAS (synthetic),2
same,activity (fold induction),[24],420
same,activity (fold induction),C7LBDAS (synthetic),10
GCCGGAGCCATGGGGCCGGAGCC (double strand) [E2E site in erbB-2 promoter reporter],activity (luciferase units),E2E-PBD-VP64 (synthetic),15900
GGACGCCCCCGCGGGTTTTCCCGCGGGGGCGTCC [F2 site GGG],Kd,[9],6 nM
same,Kd,[25],45 nM
same,Kd,[26],0.4 nM
GGAGGCGGGG (double strand) [c5],Kd,[27],30 nM
GGACGCATCCGCGGGTTTTCCCGCGGATGCGTCC [F2 site GAT],Kd,[28],3 nM

# — US20030186841
